Source: the RNAGym collection of RNA variant scans (doi:10.7554/elife.90254)

B1: LINE1-full (parent)
chain: UACGUAGGUGGUUUUCCCCUGAUAGUGCUAAGGGGGCCUGGAAGUUUGGACUGGGCAGAGCUCAACACAGCGUGGCAAAGUGGCUGUGGCUAGACUGCCUCUCUGGAUUCCUCGUCACUCAGCAGGGCAUCUCUGAGAGAAAUGCC

Variants of: B1
Experiment: self-cleavage, relative activity (ratio to wild type); higher = more cleavage; in vitro, sequencing; the parent is a self-cleaving ribozyme

**Q.** For UACGUAGGUGGUUUUCCCCUGAUAGUGCUAAGGGGGCCUGGAAGUUUGGGCUGGGCAGAGCUCAACACAGCGUGGCAAAGUGGCCGUGGCUAGACUGCCUCUCUGGAUUCCUCGUCACUCAGCAGGGCAUCUCUGAGAGAAAUGCC [A50G U85C], which self-cleavage is on record?
**A.** 0.1

**Q.** For UACGUAGAUGGUUUUCCCCUGAUAGUGCUAAGGGGGCCUGGAAGUUUGGACUGGGCAGAGCUCAACACAGCGUGGCAAAGUGGCUGUGGCCAGACUGCCUCUCUGGAUUCCUCGUCACUCAGCAGGGCAUCUCUGAGAGAAAUGCC [G8A U91C], which self-cleavage is on record?
**A.** 0.69

**Q.** For UACGUAGGUGGUUUUCCCCUGAUAGUGCUAAGGGGGCCUGGAAGUUUGGACUGGGCAGAGCUCAACGCCGCGUGGCAAAGUGGCUGUGGCUAGACUGCCUCUCUGGAUUCCUCGUCACUCAGCAGGGCAUCUCUGAGAGAAAUGCC [A67G A69C], which self-cleavage is on record?
**A.** 0.37

**Q.** Which self-cleavage does the source give for UACGUAGGUGGUUUUCCCCUGAUAGUGCUAAGGGGGCCUGGAAGUUUGGACUGGGCAGAGCUCAACACAGCGUGGCAAAGUGGCUGUGGCUAGACUGCCUCUCUGGAUUCCUCGUCACUCAGCAAGGCAUCUCUGAGAGUAAUGCC [G125A A140U] here?
**A.** 0.61

**Q.** Which self-cleavage does the source give for UACGUAGGUGGUUUUCCCCUGAUAGUGCUAAGGGGGCCUGGAAGUUUGGACUGGGCAGAGCUCAACACAGCGUGGCAAAGUGGCUGUGGCUAGACUGCCACUCUGGAUUCCUCGUCAUUCAGCAGGGCAUCUCUGAGAGAAAUGCC [U100A C118U] here?
**A.** 0.98

**Q.** With UACGUAGGUGGUUUUCCCCUGAUAGUGCUAAGGGGGCCCGGAAGUUUGGACUGGGCAGAGCUCAACACAGCGUGGCAAAGUGGCUGUGGCUAGACUGCCUCUCUGGAUUCCUCGUCACUCAGCAGGGCAUCUCUGAGAUAAAUGCC [U39C G139U] as the variant, how does the self-cleavage read?
**A.** 0.42

**Q.** With UACGUAGGUGGUUUUCCCCUGAUAGUUCUAAGGGGGCCUGGAAGUUCGGACUGGGCAGAGCUCAACACAGCGUGGCAAAGUGGCUGUGGCUAGACUGCCUCUCUGGAUUCCUCGUCACUCAGCAGGGCAUCUCUGAGAGAAAUGCC [G27U U47C] as the variant, how does the self-cleavage read?
**A.** 0.88

**Q.** Which self-cleavage does the source give for UACGUAGGUGGUCUUCCCCUGAUAGUGCUAAGGGGGCCUGGAAGUUUGGACUGGGCAGAGCUCAACACAGCGUGGCAAAGUGGCUGUGGCUAGACUGCCUCUCUGGAUACCUCGUCACUCAGCAGGGCAUCUCUGAGAGAAAUGCC [U13C U109A] here?
**A.** 1.11

**Q.** Which self-cleavage does the source give for UACGUAGGUGGUUCUCCCCUGAUAGUGCUAAGGGGGCCUGGAAGUUAGGACUGGGCAGAGCUCAACACAGCGUGGCAAAGUGGCUGUGGCUAGACUGCCUCUCUGGAUUCCUCGUCACUCAGCAGGGCAUCUCUGAGAGAAAUGCC [U14C U47A] here?
**A.** 1.17

**Q.** For UACGUAGGUGGUUUUCCCCAGAUAGUGCUAAGGGGGCCUGGAAGUUUGGACUGGGCAGAGCUCAACGCAGCGUGGCAAAGUGGCUGUGGCUAGACUGCCUCUCUGGAUUCCUCGUCACUCAGCAGGGCAUCUCUGAGAGAAAUGCC [U20A A67G], which self-cleavage is on record?
**A.** 0.45

**Q.** With UACGUAGGUGGUUUUCCCCUGAUAGUGCUAAGGGGGCCUGGAAGUUUGGACUGGGCAGAGCUCAACACAGCGUGGCAAGGUGGCUGUGGCUAGACUGCCUCUCUGGAUUCCUCGUCACUCAGCAGGGCAUCUCUGAGAGAAAUGUC [A79G C145U] as the variant, how does the self-cleavage read?
**A.** 1.09

**Q.** With UACGUAGGUGGUUUUCCCCUGAUGGUGCUAAGGGGGCCUGGAGGUUUGGACUGGGCAGAGCUCAACACAGCGUGGCAAAGUGGCUGUGGCUAGACUGCCUCUCUGGAUUCCUCGUCACUCAGCAGGGCAUCUCUGAGAGAAAUGCC [A24G A43G] as the variant, how does the self-cleavage read?
**A.** 1.12

**Q.** Which self-cleavage does the source give for UACGUAGGUGGUUUUCCCCCGAUAGUGCUAAGGGGGCCUGGAAGUUUGGACUGGGCAGAGCUCAACACAGCGUGGCAAAGUGGCUGUGGCUAGACUGCCUCUCUGGAUUCCUCGUCACUCAGCAGGGCAUCGCUGAGAGAAAUGCC [U20C U132G] here?
**A.** 0.46

**Q.** Which self-cleavage does the source give for UACGUAGGCGGUUUUCCCCUGAUAGUGCUAAGGGGGCCUGGAAGUUUGGACUGGGCAGAGCUCAACACAGCGUGACAAAGUGGCUGUGGCUAGACUGCCUCUCUGGAUUCCUCGUCACUCAGCAGGGCAUCUCUGAGAGAAAUGCC [U9C G75A] here?
**A.** 1.4

**Q.** Which self-cleavage does the source give for UACGUAGGUGGUUUUCCCCUGACAGUGCUAAGGGGGCCUGGAAGUUUGGACUGGGCAGAGCUCAACACAGCGUGGCAAAGUGGCUGUGGCUAGACUGCCUCUCCGGAUUCCUCGUCACUCAGCAGGGCAUCUCUGAGAGAAAUGCC [U23C U104C] here?
**A.** 1.78

**Q.** For UACGUAGGAGGUUUUCCCCUGAUAGUGCUAAGGGGGCCUGGAAGUUUGGACUGGGCAGAGCUCAACACAGCGUGGCAAAGUGGCUGAGGCUAGACUGCCUCUCUGGAUUCCUCGUCACUCAGCAGGGCAUCUCUGAGAGAAAUGCC [U9A U87A], which self-cleavage is on record?
**A.** 0.15

**Q.** Which self-cleavage does the source give for UACGUAGGUGGUUUUCCCCUGAUAGUGCUAAGGGGGCCUGGAAAUUUGGACUGGGCAGAGCUCAACACAGCGUGGCAAAGUGGCUGUGGCUAGACUGCCUCUCUGGAUUCCUCGUCACUCAGCAGGGCAUCUCUGAGAGAGAUGCC [G44A A141G] here?
**A.** 1.42

**Q.** With UACGUAGGUGGUUUUCCCCUGAUAGUGCUAAGGGGGCCUGGAAGUUUGGACUGGGCAGAGCUCAACACAGCGUGGCAAAGUGGCUGUGGCUAGACUGCCUCUCUGGAUUCCCCGUCACUCAGCUGGGCAUCUCUGAGAGAAAUGCC [U112C A124U] as the variant, how does the self-cleavage read?
**A.** 1.21

**Q.** Which self-cleavage does the source give for UACGUAGGUGGUUUUCCCCUGAUAGUGCUAAGGGGGCCUGGAAGUUUGGACUGGGCAGAGCUCUACACAGCGUGGCAAAGUGGCUGUGGCUAGACUGCCACUCUGGAUUCCUCGUCACUCAGCAGGGCAUCUCUGAGAGAAAUGCC [A64U U100A] here?
**A.** 0.23

**Q.** For UACGUAGGUGGUUUUCCCCUGAUAGUGCUAAGGGGGCCUGGAAGUUUGGACUGGGCAGAGCUCAACACAGCGUGGCAAAGUGGCUGUGGCUGGACUGCCUCUCUGGAUUCCUCGUCACUCAGCGGGGCAUCUCUGAGAGAAAUGCC [A92G A124G], which self-cleavage is on record?
**A.** 0.04
